Source: US20240067748A1 (NONA BIOSCIENCES SUZHOU, published 2024)

T1: human Trop2 on cells (human, UniProt P09758 27-323)
T1 construct: whole, on cells; also called hTrop2; 293T-human Trop2 cells
T1 sequence (looked up): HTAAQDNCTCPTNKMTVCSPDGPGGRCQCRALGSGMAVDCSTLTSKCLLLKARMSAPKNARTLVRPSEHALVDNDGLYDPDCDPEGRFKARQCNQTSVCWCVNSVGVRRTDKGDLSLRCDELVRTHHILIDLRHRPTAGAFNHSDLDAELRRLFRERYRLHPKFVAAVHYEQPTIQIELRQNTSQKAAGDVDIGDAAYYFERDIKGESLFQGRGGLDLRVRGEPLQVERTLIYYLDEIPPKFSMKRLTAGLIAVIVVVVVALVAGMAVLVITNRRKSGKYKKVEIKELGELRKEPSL

T2: monkey Trop2 protein (Sino Biological, #90893-C08H) (monkey, UniProt A0A2K5UE71 27-274)
T2 construct: bought protein; also called monkey Trop2 protein antigen (His tag)
T2 sequence: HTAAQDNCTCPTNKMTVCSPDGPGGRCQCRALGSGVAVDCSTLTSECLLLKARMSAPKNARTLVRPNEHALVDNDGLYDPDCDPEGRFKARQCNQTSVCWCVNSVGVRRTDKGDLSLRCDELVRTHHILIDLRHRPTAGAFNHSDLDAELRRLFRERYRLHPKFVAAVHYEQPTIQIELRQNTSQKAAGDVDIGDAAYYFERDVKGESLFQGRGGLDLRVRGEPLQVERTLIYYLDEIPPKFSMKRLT

T3: human TROP2 protein (Sino Biological, #10428-H08H) (human, UniProt P09758 27-274)
T3 construct: bought protein; also called human Trop2 protein antigen (His tag); not shown: His tag
T3 sequence (looked up): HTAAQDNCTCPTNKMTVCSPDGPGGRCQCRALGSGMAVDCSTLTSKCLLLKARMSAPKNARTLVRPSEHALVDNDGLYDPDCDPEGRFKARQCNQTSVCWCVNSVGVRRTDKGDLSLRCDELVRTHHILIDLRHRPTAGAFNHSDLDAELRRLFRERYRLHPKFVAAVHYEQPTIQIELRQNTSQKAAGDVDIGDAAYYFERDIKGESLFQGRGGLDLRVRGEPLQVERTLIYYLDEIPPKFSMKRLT


Assays:
human Trop2 on cells [1] = biological target: T1, human Trop2 on cells; experiment: flow cytometry on BxPC-3 tumor cells
Procedure: BxPC-3 tumor cells (the Cell Bank of the Chinese Academy of Sciences, #TCHu 12) were digested with 3 mL of TrypLE, and the digestion was stopped with 7 mL of the corresponding medium. […] The cell solution was centrifuged, and the cells were washed once with PBS+[…] buffer. […] The cells were washed once with PBS+0.50% BSA. The cells were incubated at 4° C. for 1 h in the dark with 100 μL of Alexa Fluor 488 goat anti-human IgG (Life technologies, #A-11013) diluted at 1:1000, and washed twice with PBS+0.50% BSA. The cells were resuspended in 200 μL of PBS+0.50% BSA. The suspension was centrifuged at 4° C. for 5 min at 2000 rpm and tested using a FACS verse flow cytometer or NovoCyte flow cytometer (ACEA Biosciences). All procedures were performed on ice.

human Trop2 on cells [2] = biological target: T1, human Trop2 on cells; experiment: flow cytometry on 293T-human Trop2 cells
In short: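 Cells at 1×10⁶/mL in PBS were incubated for 1 h, washed in PBS+0.5% BSA, then stained with Alexa Fluor 488 anti-human IgG for 1 h at 4 °C. Cell-bound fluorescence was measured by flow cytometry, with all steps on ice.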

[3] = biological target: T2, monkey Trop2 protein (Sino Biological, …); experiment: BLI, Octet RED96; ratio against KD for human Trop2 protein
In short: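 Sensor loaded w/ 200 nM Trop2 (human or monkey), PBS pH 7.4 + 0.1% BSA + 0.02% Tween 20. Ab 40 nM, assoc 3 min / dissoc 5 min, 30° C. Real-time binding fit for KD, kon, koff.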

[4] = biological target: T3, human TROP2 protein (Sino Biological, …); experiment: BLI epitope binning (Octet), biotinylated human Trop2 on SA sensor; row = primary antibody; competitor (secondary antibody, column): PR001166
Procedure: (§1) The biotinylated mixture after the incubation was washed three times with PBS and a Zeba centrifugal desalting column (Thermo Fisher, #89882) to remove excess biotin. The biotinylated Trop2 protein was captured by an SA sensor (Pall ForteBio, #18-5019) with the loading baseline set at 0.3 nm. The sensor was immersed in a well of assay buffer containing 50 nM primary antibody for 300 s. […] The binding assay was performed by comparing the binding of the secondary antibody to Trop2 in the presence of the primary antibody to the blocking of the primary antibody itself.

[5] = biological target: T3, human TROP2 protein (Sino Biological, …); experiment: BLI epitope binning (Octet), biotinylated human Trop2 on SA sensor; row = primary antibody; competitor (secondary antibody, column): PR001165
Procedure: as §1

[6] = biological target: T3, human TROP2 protein (Sino Biological, …); experiment: BLI epitope binning (Octet), biotinylated human Trop2 on SA sensor; row = primary antibody; competitor (secondary antibody, column): hRS7
Procedure: as §1

[7] = biological target: T3, human TROP2 protein (Sino Biological, …); experiment: BLI epitope binning (Octet), biotinylated human Trop2 on SA sensor; row = primary antibody; competitor (secondary antibody, column): PR001142
Procedure: as §1

Binder	EC50 (human Trop2 on cells [1])	Maximum MFI value (human Trop2 on cells [1])	EC50 (human Trop2 on cells [2])	Maximum (MFI) (human Trop2 on cells [2])	Top % (human Trop2 on cells [2])	KD (monkey)/KD (human) [3]	Inhibition rate (%) [4]	fold lower EC50 than the reference antibody hRS7 (human Trop2 on cells [1])	Inhibition rate (%) [5]	fold lower EC50 than the reference antibody hRS7 (human Trop2 on cells [2])	Inhibition rate (%) [6]	Inhibition rate (%) [7]
PR001133 (antibody, human IgG1, kappa, V domains shown, fully human IgG1/kappa; also called antibody No. (5)) VH: QVNLVESGGGVVQPGRSLKLSCAASGFTFSSYGMHWVRQAPGKGLEWVALIWSDGTNRYYTESVKGRFTISRDNSKNTLSLQMKSLRAEDTAVYYCAKDGWGTYGEYFQHWGQGTLVTVSS VL: DIQMTQSPSSLSASVGDRVTITCRASQNINSYLHWYQQKPGKAPKLLIYAASSLQSGVPSRFSGSGSGTDFTLTISSLQPEDFAIYYCQQSYSIPPITFGQGTRLEIKR	2.07 nM	8950 MFI	0.995 nM	7200 MFI	111%	2.27	–	–	–	–	–	–
PR001130 (antibody, human IgG1, kappa, V domains shown, fully human IgG1/kappa; also called antibody No. (2)) VH: QVQLQESGPGLVKPSGTLSLTCAVSGDSISSHNWWSWVRQPPGKGLEWIGEIYHSGITSYNPSLKSRVTISVDKSKNQFSLKLNSVTAADTAMYYCARGSGVISYFDYWGQGTLVTVSS VL: DIQMTQSPSTLSASVGDRVTITCRASQSIGNWLAWYQQKPGKAPKLLIYKASSLESGVPSRFSGSGSGTEFTLTISSLQPDDFATYYCQQYDSYSPITFGQGTRLEIKR	3.85 nM	9960 MFI	2.06 nM	6820 MFI	105%	–	–	–	–	–	–	–
PR001128 (antibody, human IgG1, kappa, V domains shown, fully human IgG1/kappa; also called antibody No. (1)) VH: QVQLQESGPGLVKPSGTLSLTCAVSGGSISSSNWWSWVRQPPGKGLEWIGEIFHSGTTYYNPSLKSRVTILVDKSKNQFSLKLSSVTAADTAVYYCARDNTKSWDHFDHWGQGTLVTVSS VL: EIVLTQSPATLSLSPGERATLSCRASQSVGSYLAWYQQKPGQAPSLLIYDASNRATGIPARFSGSGSGTDFTLTISSLEPEDFAVYYCQQRTNWYTFGQGTKLEIKR	1.7 nM	8410 MFI	0.466 nM	6850 MFI	106%	–	–	–	–	–	–	–
PR001139 (antibody, human IgG1, kappa, V domains shown, fully human IgG1/kappa; also called antibody No. (8)) VH: QVQLVESGGGVVQPGRSLRLSCAASGFTFSSFGMQWVRQGPGKGLEWVAVMWFDGSNKYYVDSVKGRFTISRDNSKNTLYLQMNSLRAEDTAVYYCARLDFSGWPLIDYWGQGTLVTVSS VL: not shown	3.15 nM	9360 MFI	0.325 nM	6850 MFI	106%	1.62	–	–	–	–	–	–

The next lines start with the values.

EC50 (human Trop2 on cells [1])	Maximum MFI value (human Trop2 on cells [1])	EC50 (human Trop2 on cells [2])	Maximum (MFI) (human Trop2 on cells [2])	Top % (human Trop2 on cells [2])	KD (monkey)/KD (human) [3]	Inhibition rate (%) [4]	fold lower EC50 than the reference antibody hRS7 (human Trop2 on cells [1])	Inhibition rate (%) [5]	fold lower EC50 than the reference antibody hRS7 (human Trop2 on cells [2])	Inhibition rate (%) [6]	Inhibition rate (%) [7]	Binder
1.15 nM	10800 MFI	0.23 nM	6510 MFI	101%	0.81	85.5%	~2 fold	99.2%	~3 fold	97.8%	101%	PR001142 (antibody, human IgG1, kappa, V domains shown, fully human IgG1/kappa; also called antibody No. (9)) VH: QVQLQESGPGLVKPSGTLSLTCAVSGDSISSNNWWSWVRQPPGKGLEWIGEIYPGGNPNYNPSLKSRVTISVDKSKNQFSLKLNSVTAADTAVYYCARGSGVISYFDYWGQGTLVTVSS VL: DIQMTQSPSTLSASVGDRVTITCRASQSIGHWLAWYQQKPGKAPKLLIYKASSLESGVPSRFRGSGSGTEFTLTISSLQPDDFATYYCQQYSSYSPITFGQGSRLEIKR
2.08 nM	8730 MFI	0.753 nM	6480 MFI	–	–	7.34%	–	92%	–	96.5%	93.3%	comparative example 2 antibody Tab (hRS7) (antibody, human IgG1, kappa, V domains shown, prepared on the basis of sacituzumab govitecan (ChemPartner, #T07-001); naked antibody) VH: QVQLQQSGSELKKPGASVKVSCKASGYTFTNYGMNWVKQAPGQGLKWMGWINTYTGEPTYTDDFKGRFAFSLDTSVSTAYLQISSLKADDTAVYFCARGGFGSSYWYFDVWGQGSLVTVSS VL: DIQLTQSPSSLSASVGDRVSITCKASQDVSIAVAWYQQKPGKAPKLLIYSASYRYTGVPDRFSGSGSGTDFTLTISSLQPEDFAVYYCQQHYITPLTFGAGTKVEIKR
–	–	0.414 nM	6460 MFI	99.7%	–	5.24%	–	97.7%	–	96.4%	98.1%	PR001165 (antibody, human IgG1, kappa, V domains shown, fully human IgG1/kappa; also called antibody No. (26)) VH: QVQLVESGGGVVQPGRSLRLSCEASGFTFSHYGMHWVRQAPGKGLEWVAVIWYDGIKTYYVESVKGRFTISRDNSKNTLNLQMNRLRAEDTAVYYCARDGGFGESNYYGLDVWGQGTTVTVSS VL: DIQLTQSPSFLSASVGDRVTITCRASQGISSYLGWYQQKPGKAPKLLIYIASTLQSGVPSRFSGSGSGTEFTLTISSLQPEDFATYYCQQLNSYPYTFGQGTKLEIKR
0.716 nM	8390 MFI	0.204 nM	7050 MFI	109%	–	102%	~2 fold	18.5%	~3 fold	21.8%	85.4%	PR001166 (antibody, human IgG1, kappa, V domains shown, fully human IgG1/kappa; also called antibody No. (27)) VH: QVQLQESGPGLVKPSETLSLTCAVSGYSISSGYFWAWIRQPPGKGLEWIGSIYHSGRTHYNPSLKSRVIISLDTSKNQFSLKLRSVTAADSAVYYCAREGYASGSYYWGQGTLVTVSS VL: EIVMTQSPATLSVSPGERATLSCRSSQSVNNYLAWFQQKPGQAPRLLIYDSSTRATGIPARFSGSGSGTEFTLTISSLQSEDFAFYFCQQYENWPLTFGGGTKVEIKR
1.12 nM	9110 MFI	0.158 nM	5850 MFI	90.2%	2.16	–	~2 fold	–	~3 fold	–	–	PR001162 (antibody, human IgG1, kappa, V domains shown, fully human IgG1/kappa; also called antibody No. (23)) VH: QVQLVESGGGVVQPGTSLRLSCVASGFTFSNDGMHWVRQAPGMGLEWVAIMWFDGGSKYYADSVKGRFTISRDNSKNTLYLQMNNLRAEDTAVYYCARDHPHYLGSGSFDYWGQGTLVTVSS VL: EIVLTQSPATLSLSPGERATLSCRASQSVSSYLAWYQQKPGQAPRLLIYDASNRATGIPARFSGSGSGTDFTLTISSLQAEDVAVYYCQQYYSTPYTFGQGTKLEIKR
